Experimental data reported in PMC3829993.

How the values were obtained:
[1] = substrate: NC(=O)C1=CN([C@@H]2O[C@H](COP(=O)(O)OP(=O)(O)OC[C@H]3O[C@@H](n4cnc5c(N)ncnc54)[C@H](O)[C@@H]3O)[C@@H](O)[C@H]2O)C=CC1; assay: purified protein; conditions: varied: cofactor
[2] = substrate: NC(=O)C1=CN([C@@H]2O[C@H](COP(=O)(O)OP(=O)(O)OC[C@H]3O[C@@H](n4cnc5c(N)ncnc54)[C@H](OP(=O)(O)O)[C@@H]3O)[C@@H](O)[C@H]2O)C=CC1; assay: purified protein; conditions: varied: cofactor

B1: SMFMO (Stenotrophomonas maltophilia K279a) (protein)
chain: MDSVDVVVIGGGQSGLSAGYFLRRSGLSYVILDAEASPGGAWQHAWHSLHLFSPAGWSSIPGWPMPASQGPYPARAEVLAYLAQYEQKYALPVLRPIRVQRVSHFGERLRVVARDGRQWLARAVISATGTWGEAYTPEYQGLESFAGIQLHSAHYSTPAPFAGMRVAIIGGGNSGAQILAEVSTVAETTWITQHEPAFLADDVDGRVLFERATERWKAQQEGREPDLPPGGFGDIVMVPPVLDARARGVLAAVPPPARFSPTGMQWADGTERAFDAVIWCTGFRPALSHLKGLDLVTPQGQVEVDGSGLRALAVPSVWLLGYGDWNGMASATLIGVTRYAREAVRQVTAYCADHQDR
Km [1]: 23.7 ± 9.1 M x 10^-6 | kcat [1]: 0.029 ± 0.003 s⁻¹ | kcat/Km [1]: 1220 M⁻¹ s⁻¹ | Km [2]: 27.3 ± 5.3 M x 10^-6 | kcat [2]: 0.022 ± 0.002 s⁻¹ | kcat/Km [2]: 805 M⁻¹ s⁻¹
